Assay results from patent US20250027068A1.
Substitutions are numbered along the chain they refer to.

B1: VRT-57 (Fc fusion)
chain: VTSVWTKGVTPPTDFIKGEDVFHAPYKAGQGWYDITKTFNGKDNLLCGAATAGNMLHWWFDQNKEYIEAYLKKHPEKQKIIFNNQELFDLKAAINTKGSQKNSELFNYFRDKAFPNLSARRLGVFPDLVLDMFINGYYLNVTKTQTTDVNRTYQEKDKRGGIFDAVFTRGVQSKLLTSRHDFKEKGLKEISDLIKQELTEGKALGLSHTYANVRINHVINLWGADFDSDGNLKAIYVTDSDSNASIGMKKYFVGVNSAGKVAISAKEIKEDNIGAQVLGLFTLSTGQDIWNQTNDKTHTCPPCPAPEAAGAPSVFLFPPKPKDTLMISRTPEVTCVVVDVSHEDPEVKFNWYVDGVEVHNAKTKPREEQQNSTYRVVSVLTVLHQDWLNGKEYKCKVSNKALKAPIEKTISKAKGQPREPQVYTLPPSRDELTKNQVSLTCLVKGFYPSDIAVEWESNGQPENNYKTTPPVLDSDGSFFLYSKLTVDKSRWQQGNVFSCSVMHEALHNHYTQKSLSLSPG
B2: VRT-59 (Fc fusion)
chain: B1 chain with T13A, I16T, K17Q, K27V, G29N, F182L, E184N
B3: VRT-55 (Fc fusion)
chain: VTSVWTKGVTPPTDFIKGEDVFHAPYKAGQGWYDITKTFNGKDDLLCGAATAGNMLHWWFDQNKEYIEAYLKKHPEKQKIMFGDQELLDVRKAINTKGSQKNSELFNYFRDKAFPNLSARRLGVMPDLVLDMFINGYYLNVTKTQTTDVNRTYQEKDKRGGIFDAVFTRGDQSKLLTSRHDLKNKGLKEISDLIKQELTEGKALGLSHTYANVRINHVINLWGADFDSDGNLKAIYVTDSDSNASIGMKKYFVGVNSAGKVAISAKEIKEDNIGAQVLGLFTLSTGQDIWNQTNDKTHTCPPCPAPEAAGAPSVFLFPPKPKDTLMISRTPEVTCVVVDVSHEDPEVKFNWYVDGVEVHNAKTKPREEQQNSTYRVVSVLTVLHQDWLNGKEYKCKVSNKALKAPIEKTISKAKGQPREPQVYTLPPSRDELTKNQVSLTCLVKGFYPSDIAVEWESNGQPENNYKTTPPVLDSDGSFFLYSKLTVDKSRWQQGNVFSCSVMHEALHNHYTQKSLSLSPG
B4: VRT-56 (Fc fusion)
chain: B3 chain with T13A, I16T, K17Q, K27V, G29N
B5: VRT-58 (Fc fusion)
chain: B1 chain with F182L, E184N

target: pooled human IgG (human); test: cell-based or functional assay

| Binder | Enzyme Activity Endpoint Assay, Fab′2 [ng/µL] | Enzyme Activity Endpoint Assay, Fc [ng/µL] | Enzyme Activity Endpoint Assay, IgG [ng/µL] | Enzyme Activity Endpoint Assay, scIgG [ng/µL] |
| --- | --- | --- | --- | --- |
| B1 | 0 | 97 | 903 | 27 |
| B2 | 0 | 157 | 726 | 107 |
| B3 | 0 | 120 | 734 | 109 |
| B4 | 0 | 200 | 742 | 240 |
| B5 | 0 | 191 | 527 | 236 |
